T1: GRS expressed natively in human cells (HeLa cell lysate) (human, UniProt P41250 55-739, limits assumed)
T1 construct: Target of the western blot; also called human 세포에서 원래 발현된 GRS
T1 sequence (looked up): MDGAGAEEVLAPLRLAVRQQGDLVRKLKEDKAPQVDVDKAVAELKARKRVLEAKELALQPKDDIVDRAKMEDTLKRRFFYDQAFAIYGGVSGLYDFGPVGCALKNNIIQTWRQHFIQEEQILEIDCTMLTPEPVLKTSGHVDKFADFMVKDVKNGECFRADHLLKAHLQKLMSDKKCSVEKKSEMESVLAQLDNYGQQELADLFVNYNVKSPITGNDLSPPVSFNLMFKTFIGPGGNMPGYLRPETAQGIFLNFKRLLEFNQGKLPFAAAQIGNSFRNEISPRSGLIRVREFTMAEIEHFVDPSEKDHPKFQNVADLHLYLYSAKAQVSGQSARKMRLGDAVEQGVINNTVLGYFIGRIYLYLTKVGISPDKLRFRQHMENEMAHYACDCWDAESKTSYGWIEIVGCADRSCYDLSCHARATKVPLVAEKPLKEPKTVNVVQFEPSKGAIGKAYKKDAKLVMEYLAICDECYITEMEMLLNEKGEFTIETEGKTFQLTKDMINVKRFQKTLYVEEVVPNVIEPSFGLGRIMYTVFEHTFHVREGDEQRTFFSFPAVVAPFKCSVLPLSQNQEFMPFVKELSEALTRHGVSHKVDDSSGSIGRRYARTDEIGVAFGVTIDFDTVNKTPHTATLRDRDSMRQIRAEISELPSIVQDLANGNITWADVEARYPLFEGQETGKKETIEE

T2: YRS (Tyrosyl-tRNA synthetase), purified recombinant antigen (UniProt P54577 1-528, limits assumed)
T2 construct: also called 타이로실-tRNA 합성효소
T2 sequence (looked up): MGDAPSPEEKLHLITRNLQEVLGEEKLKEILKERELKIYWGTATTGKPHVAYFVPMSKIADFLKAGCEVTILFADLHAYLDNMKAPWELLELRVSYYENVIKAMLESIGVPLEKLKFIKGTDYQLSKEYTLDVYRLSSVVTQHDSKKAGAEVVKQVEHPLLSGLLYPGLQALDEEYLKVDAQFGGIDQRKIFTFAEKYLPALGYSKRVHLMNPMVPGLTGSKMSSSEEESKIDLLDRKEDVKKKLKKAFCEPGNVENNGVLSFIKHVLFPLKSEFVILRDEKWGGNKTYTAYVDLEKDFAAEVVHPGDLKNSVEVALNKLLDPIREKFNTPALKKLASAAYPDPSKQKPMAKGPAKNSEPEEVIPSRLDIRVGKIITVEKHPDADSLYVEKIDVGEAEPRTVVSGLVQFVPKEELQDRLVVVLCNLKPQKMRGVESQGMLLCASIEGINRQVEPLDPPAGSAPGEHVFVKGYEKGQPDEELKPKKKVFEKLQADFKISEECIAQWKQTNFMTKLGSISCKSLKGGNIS

T3: AIMP1 (Aminoacyl-tRNA-synthetase-interacting multifunctional protein 1), purified recombinant antigen (UniProt Q12904 1-312, limits assumed)
T3 construct: also called AIMP1(p43); p43
T3 sequence (looked up): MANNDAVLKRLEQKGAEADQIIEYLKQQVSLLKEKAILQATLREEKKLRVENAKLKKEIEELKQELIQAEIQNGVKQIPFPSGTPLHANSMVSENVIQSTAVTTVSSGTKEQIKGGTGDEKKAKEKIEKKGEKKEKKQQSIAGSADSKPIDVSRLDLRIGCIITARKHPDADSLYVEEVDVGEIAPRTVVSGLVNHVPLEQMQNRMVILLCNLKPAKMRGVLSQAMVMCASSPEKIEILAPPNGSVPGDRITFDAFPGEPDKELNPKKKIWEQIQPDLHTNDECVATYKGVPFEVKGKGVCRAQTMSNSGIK

T4: WRS (Tryptophanyl-tRNA synthetase), purified recombinant antigen (UniProt P23381 1-471, limits assumed)
T4 construct: also called 트립토파닐-tRNA 합성효소
T4 sequence (looked up): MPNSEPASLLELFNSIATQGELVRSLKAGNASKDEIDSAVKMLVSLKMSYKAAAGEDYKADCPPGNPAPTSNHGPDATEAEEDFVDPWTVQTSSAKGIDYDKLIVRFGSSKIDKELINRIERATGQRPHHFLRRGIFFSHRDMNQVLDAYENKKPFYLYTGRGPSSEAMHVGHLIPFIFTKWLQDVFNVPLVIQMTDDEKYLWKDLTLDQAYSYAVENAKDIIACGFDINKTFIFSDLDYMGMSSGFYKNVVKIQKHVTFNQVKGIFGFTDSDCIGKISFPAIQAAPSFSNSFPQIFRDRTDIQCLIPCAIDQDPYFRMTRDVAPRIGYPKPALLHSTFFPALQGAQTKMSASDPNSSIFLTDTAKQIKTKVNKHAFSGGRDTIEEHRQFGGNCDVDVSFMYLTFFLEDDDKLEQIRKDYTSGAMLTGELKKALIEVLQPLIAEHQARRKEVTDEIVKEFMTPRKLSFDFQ

T5: HRS (Histidyl-tRNA synthetase), purified recombinant antigen (UniProt P12081 1-509, limits assumed)
T5 construct: also called 히스티딜-tRNA 합성효소
T5 sequence (looked up): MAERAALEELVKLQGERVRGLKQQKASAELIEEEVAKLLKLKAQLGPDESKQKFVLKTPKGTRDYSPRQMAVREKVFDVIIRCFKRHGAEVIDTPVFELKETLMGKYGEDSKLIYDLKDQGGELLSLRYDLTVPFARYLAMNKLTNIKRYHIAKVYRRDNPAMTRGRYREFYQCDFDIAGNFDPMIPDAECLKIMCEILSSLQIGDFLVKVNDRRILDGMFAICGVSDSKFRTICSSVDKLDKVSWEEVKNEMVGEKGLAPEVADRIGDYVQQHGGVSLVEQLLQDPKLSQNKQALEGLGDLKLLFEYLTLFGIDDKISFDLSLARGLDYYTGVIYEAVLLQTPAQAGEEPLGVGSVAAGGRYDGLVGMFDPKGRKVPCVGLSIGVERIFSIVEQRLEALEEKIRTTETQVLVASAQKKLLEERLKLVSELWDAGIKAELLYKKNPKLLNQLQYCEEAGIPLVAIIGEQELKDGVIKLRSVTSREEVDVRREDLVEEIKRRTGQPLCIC

T6: NRS (Asparaginyl-tRNA synthetase), purified recombinant antigen (UniProt O43776 1-548, limits assumed)
T6 construct: also called 아스파라기닐딜-tRNA 합성효소
T6 sequence (looked up): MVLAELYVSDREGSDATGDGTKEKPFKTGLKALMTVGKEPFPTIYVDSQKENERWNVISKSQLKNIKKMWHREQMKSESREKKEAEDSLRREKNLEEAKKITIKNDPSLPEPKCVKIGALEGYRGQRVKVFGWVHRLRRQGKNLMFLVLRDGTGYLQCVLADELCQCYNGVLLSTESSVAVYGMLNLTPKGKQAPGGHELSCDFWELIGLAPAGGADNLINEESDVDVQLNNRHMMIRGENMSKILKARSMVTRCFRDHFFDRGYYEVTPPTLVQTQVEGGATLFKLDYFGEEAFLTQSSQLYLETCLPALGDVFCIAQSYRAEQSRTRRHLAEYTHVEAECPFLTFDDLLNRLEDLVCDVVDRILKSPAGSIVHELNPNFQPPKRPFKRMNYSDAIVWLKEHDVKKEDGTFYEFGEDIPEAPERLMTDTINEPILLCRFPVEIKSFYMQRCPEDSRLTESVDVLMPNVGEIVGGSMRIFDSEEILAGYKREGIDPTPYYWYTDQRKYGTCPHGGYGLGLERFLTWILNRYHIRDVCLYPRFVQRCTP


Assays:
[1] = biological target: T1, GRS expressed natively in human cells …; assay: western blot
[2] = biological target: T7, SRS (Seryl-tRNA synthetase), purified recombinant antigen (UniProt P49591 1-514, limits assumed); assay: Luminex multiplex bead assay, antigen coupled to beads, anti-HA-biotin / SA-PE detection
T7 construct: also called 세릴-tRNA 합성효소

[3] = biological target: T2, YRS (Tyrosyl-tRNA synthetase), purified …; assay: as above
[4] = biological target: T3, AIMP1 …; assay: as above
[5] = biological target: T4, WRS (Tryptophanyl-tRNA synthetase), …; assay: as above
[6] = biological target: T5, HRS (Histidyl-tRNA synthetase), …; assay: as above
[7] = biological target: T6, NRS (Asparaginyl-tRNA synthetase), …; assay: as above
[8] = biological target: T8, KRS (Lysyl-tRNA synthetase), purified recombinant antigen (UniProt Q15046 1-597, limits assumed); assay: as above
T8 construct: also called 리실-tRNA 합성효소
T8 sequence (Q15046 whole entry): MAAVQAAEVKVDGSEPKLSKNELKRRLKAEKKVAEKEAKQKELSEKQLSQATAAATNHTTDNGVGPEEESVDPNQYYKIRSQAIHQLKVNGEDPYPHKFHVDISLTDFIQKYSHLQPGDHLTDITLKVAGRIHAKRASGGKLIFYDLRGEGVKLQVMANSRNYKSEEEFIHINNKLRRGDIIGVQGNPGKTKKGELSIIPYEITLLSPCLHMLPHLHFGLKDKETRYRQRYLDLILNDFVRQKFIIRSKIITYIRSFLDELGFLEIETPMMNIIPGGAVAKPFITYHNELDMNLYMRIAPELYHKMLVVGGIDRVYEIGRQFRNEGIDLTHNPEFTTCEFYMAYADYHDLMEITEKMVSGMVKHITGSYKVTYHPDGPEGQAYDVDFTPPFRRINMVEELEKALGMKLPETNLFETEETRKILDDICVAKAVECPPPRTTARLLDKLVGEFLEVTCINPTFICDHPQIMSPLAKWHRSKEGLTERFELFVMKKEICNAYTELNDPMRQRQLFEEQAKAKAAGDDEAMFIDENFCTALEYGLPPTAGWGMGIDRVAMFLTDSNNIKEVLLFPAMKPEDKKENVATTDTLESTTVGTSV

T7 sequence (P49591 whole entry): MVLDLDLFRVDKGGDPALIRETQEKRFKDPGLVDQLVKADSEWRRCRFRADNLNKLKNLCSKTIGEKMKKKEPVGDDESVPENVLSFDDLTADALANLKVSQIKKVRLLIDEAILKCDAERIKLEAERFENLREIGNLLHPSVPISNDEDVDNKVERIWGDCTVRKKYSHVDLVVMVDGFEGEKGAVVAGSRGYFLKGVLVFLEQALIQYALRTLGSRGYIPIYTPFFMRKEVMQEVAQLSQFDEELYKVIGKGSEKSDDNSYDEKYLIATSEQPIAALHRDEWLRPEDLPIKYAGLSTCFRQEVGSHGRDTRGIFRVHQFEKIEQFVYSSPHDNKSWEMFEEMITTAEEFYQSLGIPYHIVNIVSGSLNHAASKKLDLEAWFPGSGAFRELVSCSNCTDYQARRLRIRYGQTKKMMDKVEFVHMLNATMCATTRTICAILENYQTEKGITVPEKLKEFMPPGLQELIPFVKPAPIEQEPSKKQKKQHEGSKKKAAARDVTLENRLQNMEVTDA

Binder	binding result [1]	binding result [2]	binding result [3]	binding result [4]	binding result [5]	binding result [6]	binding result [7]	binding result [8]
anti-GRS scFv, SEQ ID NO 41 (antibody iii) (scFv, One of the three scFvs selected by phage display, expressed from pComb3X in the E. coli periplasm; His and HA tags were used for purification and detection; also called 본 발명의 항체; 항 GRS scFv 항체) scFv: EVQLLESGGGLVQPGGSLRLSCAASGFTFSNYDMSWVRQAPGKGLEWVSWIYSNGSSTYYADSVKGRFTISRDNSKNTLYLQMNSLRAEDTAVYYCARITCMFDYWGQGTLVTVSSGGGGSGGGGSGGGGSQSVLTQPPSASGTPGQRVTISCSGSSSNIGSNYVTWYQQLPGTAPKLLIYADSHRPSGVPDRFSGSKSGTSASLAISGLRSEDEADYYCGSWDYSLNGYVFGGGTKLTVL	binds	no binding	no binding	no binding	no binding	no binding	no binding	no binding
anti-GRS scFv, SEQ ID NO 27 (antibody ii) (scFv, One of the three scFvs selected by phage display, expressed from pComb3X in the E. coli periplasm; His and HA tags were used for purification and detection; also called 본 발명의 항체; 항 GRS scFv 항체) scFv: EVQLLESGGGLVQPGGSLRLSCAASGFTFSGYDMSWVRQAPGKGLEWVSAIYSDSGSTYYADSVKGRFTISRDNSKNTLYLQMNSLRAEDTAVYYCARNTALFDYWGQGTLVTVSSGGGGSGGGGSGGGGSQSVLTQPPSASGTPGQRVTISCSGSSSNIGSNYVTWYQQLPGTAPKLLIYANNHRPSGVPDRFSGSKSGTSASLAISGLRSEDEADYYCGAWDASLSGYVFGGGTKLTVL	binds	no binding	no binding	no binding	no binding	no binding	no binding	no binding
anti-GRS scFv, SEQ ID NO 13 (antibody i) (scFv, One of the three scFvs selected by phage display (human VH3-23/VL1g framework), expressed from pComb3X in the E. coli periplasm; It was purified on Ni-NTA and detected with anti-HA, so it carries His and HA tags; Every result written here is told alike for all three scFvs; also called 본 발명의 항체; 항 GRS scFv 항체) scFv: EVQLLESGGGLVQPGGSLRLSCAASGFTFSDYDMSWVRQAPGKGLEWVSAISPDDGSKYYADSVKGRFTISRDNSKNTLYLQMNSLRAEDTAVYYCARTTWLFDYWGQGTLVTVSSGGGGSGGGGSGGGGSQSVLTQPPSASGTPGQRVTISCTGSSSNIGNNYVNWYQQLPGTAPKLLIYADSHRPSGVPDRFSGSKSGTSASLAISGLRSEDEADYYCGAWDSSLSGYVFGGGTKLTVL		no binding	no binding	no binding	no binding	no binding	no binding	no binding

From patent KR20150077749A (dated 2015)
